Experimental findings from US20240092835A1, “NOVEL PEPTIDES CAPABLE OF ALTERING NK CELL ACTIVITY” (Massachusetts Institute of Technology, priority 2022, published 2024) are described below.

One assay concerns the target CD94/NKG2C (UniProt Q13241). Kind of assay: SPR steady state, Biacore T200, pMHC single chain trimer immobilized, CD94/NKG2C analyte. (Surface plasmon resonance follows binding to a sensor surface in real time, without labels.)
In another assay the target is CD94/NKG2A (UniProt Q13241). Description: SPR steady state, Biacore T200, pMHC single chain trimer immobilized, CD94/NKG2A analyte.

In general, Kd refers to a measure of binding affinity in units of concentration. Lower therefore signals a tighter complex. “BFAR263-271 peptide-HLA-E complex (single chain trimer) (from UniProt P61769 21-119; P13747 22-297) (peptide-MHC)”: the Kd was found to be 1.8 µM with CD94/NKG2C and 0.8 µM with CD94/NKG2A.

For “CREB3L1419-427 peptide-HLA-E complex (single chain trimer) (from UniProt P61769 21-119; P13747 22-297) (peptide-MHC)”, the figures for the Kd in the assay with CD94/NKG2C and with CD94/NKG2A were 9.8 µM and 3.3 µM, respectively.

Turning to “PISD55-63 peptide-HLA-E complex (single chain trimer) (from UniProt P61769 21-119; P13747 22-297) (peptide-MHC)”, the results for the Kd with CD94/NKG2C and with CD94/NKG2A were 16 µM and 12.1 µM, respectively.

For “GTF3C5293-301 peptide-HLA-E complex (single chain trimer) (from UniProt P61769 21-119; P13747 22-297) (peptide-MHC)”, the Kd in the assay with CD94/NKG2C was found to be 92.4 µM; with CD94/NKG2A, 28.1 µM.

Consider “AKAP6388-396 peptide-HLA-E complex (single chain trimer) (from UniProt P61769 21-119; P13747 22-297) (peptide-MHC)”, for which the Kd in the assay with CD94/NKG2C was 15.6 µM; in the assay with CD94/NKG2A, 4.1 µM.
